Data: patent publication US8546083B2, “Molecular accessibility assay” (University of Vermont, priority 2007, dated 2013)

Experiments:
4L substrate = test: DAPI molecular accessibility assay, active fraction determination, 4L substrate; assay type: biochemical; details: for activity (100*α): 100 nM 4L substrate, 50 mM sodium borohydride; for active fraction / calculated α value: 4L sequence; for active fraction: NaBH4 and NaCNBH3
Procedure: (§1) Oligonucleotide substrates were purchased from Midland Certified Reagent Co. (Midland, Tex.) and were PAGE purified prior to use. All gel-based comparisons were performed with the following double stranded substrate: (35DHU) 5′-TET-tgtcaatagcaagnggagaagtcaatcgtgagtct-3′ (SEQ ID NO:1) where TET represents the fluorescent label 6-tetrachlorofluorescein and n=5,6-dihydrouracil (DHU). Molecular accessibility DAPI-based experiments were performed with the following double-stranded substrates: (4L) 5′-gccccgccaattnccgccgccgcc-3′ (SEQ ID NO:2), (5L) 5′-gccccgccaattcnccgccgccgcc-3′(SEQ ID NO:3), (5R) 5′-gccccgccgccccgccnaattccgccgccgcc-3′ (SEQ ID NO:4), and (N5R) 5′-gccccgccgccccgccncaattccgccgccgcc-3′ (SEQ ID NO:5) where n=either DHU for damaged substrates or cytosine for non-damaged controls. All complementary strands contained a G residue across from DHU (or across from the cytosine in controls—e.g. Watson-Crick base pairing) and were annealed in 50 mM Tris-HCl (pH 8.0), 50 mM NaCl by heating to 94° C. for 2 minutes and slowly cooling to 4° C. over the period of 1 hour in a Perkin Elmer DNA Thermal Cycler 480. In each case the ratio of damaged to complementary strand during annealing was 1:1.1. Note that the DAPI-based oligonucleotides all differ in location of the AT-rich region in relation to the damaged base.
(§2) EcoNth, EcoFpg, EcoNei, and NEIL1 were incubated for 30 minutes at 37° C. with 100 nM DHU:G-containing substrates at final concentrations of 50, 100, 200, 400, 800, 1200, or 1600 nM, in the presence of either 50 or 100 mM sodium borohydride (NaBH4) or sodium cyanoborohydride (NaCNBH3), as described in the Figures. Borohydride compounds were dissolved fresh for each independent experiment (one substrate and series of enzyme dilutions) as 1.25× stocks in Milli-Q water. Reactions were initiated by simultaneous addition of enzyme and borohydride solution to annealed substrates utilizing separate multi-pipettes in a 96-well format to a final volume of 100 μL. Except for EcoFpg trapping with sodium cyanoborohydride, the final buffer for each reaction contained 10 mM Tris-HCl (pH 8.0), 60 mM Na^+, and either 50 mM BH4^− or CNBH3^−. In the former case, the final buffer contained 10 mM Tris-HCl (pH 8.0), 110 mM Na^+, and 100 mM CNBH3^−.
(§3) For gel-based substrates, completed reactions were mixed with a dye-free SDS loading buffer (50 mM Tris-HCl (pH 6.8), 100 mM dithiothreitol, 4% SDS, 10% glycerol), heated to 90° C. for 5 minutes, separated by 12% SDS-PAGE, and visualized by PhosphorImager analysis (Bio-Rad Molecular Imager FX) (Bio-Rad Laboratories, Hercules, Calif.). For all other substrates, an equal volume of 200 nM DAPI in 10 mM Tris-HCl (pH 8.0) and 50 mM NaCl was added and incubated for 5 minutes at room temperature prior to fluorescence detection. Final concentrations of the fluorescence effecting molecules at the time of detection in these experiments were 100 nM DAPI, 50 nM substrate, and 25-800 nM enzyme.
(§4) Fluorescence readings were made on a Synergy HT Multi-Detection Microplate Reader (BIO-TEK) using a tungsten-halogen lamp and 360/40 bandpass excitation filter in conjunction with a 460/40 emission filter. Corning Half Area, NBS treated (Nonbinding Surface), Black, 96-well Microplates plates (Corning #3686) were used for all DAPI-based experiments. The combination of enzymes, DNA, and DAPI were all shown to contribute linearly to changes in the overall fluorescence based on the range of concentrations used; there was therefore no need to correct for the inner filter effect.
Given a sufficiently high concentration of trapping reagent, and a sufficiently long incubation time, the quantity of ES complex is related to the quantity of total enzyme added, ET, and total substrate added, ST, by the equation: ES=min(αET, βST) where α is the active enzyme fraction, P is the active substrate fraction (fraction cleavable), and min is the minimum function. […]

[1] = Fluorescence of DAPI binding to double stranded DNA; details: 50 nM double stranded DNA, 100 nM DAPI, 10 mM Tris-HCl pH 8.0, 50 mM NaCl, 5 minutes room temperature
Procedure: as §3, §4
Each of the 4L, 5L, 5R, and N5R substrates, along with their non-damaged counterparts, were initially tested for their ability to associate with DAPI and thereby affect the detected fluorescence. […] In the absence of DNA, there was only a small increase in fluorescence from the addition of DAPI, as would be expected. The differences in fluorescence for each of the DAPI bound substrates are presumably due to both, sequence context and experimental variations in DNA concentration. For example, the 4L sequence is expected to have a lower total fluorescence due to the importance of the 3′ nucleotide following the 5′-AATT-3′ binding sequence in regards to fluorescence intensity (38). Due to the fact that the molecular accessibility assay is based on relative fluorescence, these differences are inconsequential.

35DHU substrate = test: Gel-based Schiff base trapping assay (SDS-PAGE, PhosphorImager), active fraction determination; assay type: biochemical; details: for α value (active enzyme fraction): 100 nM 35DHU; for active fraction: gel-based, from α values with NaBH4 and NaCNBH3
Procedure: as §1, §2, §3
Given a sufficiently high concentration of trapping reagent, and a sufficiently long incubation time, the quantity of ES complex is related to the quantity of total enzyme added, ET, and total substrate added, ST, by the equation: ES=min(αET, βST) where α is the active enzyme fraction, P is the active substrate fraction (fraction cleavable), and min is the minimum function. Furthermore, holding ST constant while varying ET can be depicted graphically (FIG. 1A) where the rising slope is equivalent to α, the plateau is equivalent to ST*β, and the breakpoint is defined by the relation: ST=(α/β)ET. Therefore, by varying ET from below to well above the constant ST concentration, the active enzyme fraction can be determined by linear regression of all points falling below the ET breakpoint concentration. The decision to include or exclude a given point pre-breakpoint is simply made so as to minimize the root-mean squared deviation from both the pre-breakpoint regression and the post-breakpoint best-fit line with a slope of zero. […]

5L substrate = test: DAPI molecular accessibility assay, active fraction determination, 5L substrate; assay type: biochemical; details: 5L sequence, NaBH4 and NaCNBH3
Procedure: (§5) Oligonucleotide substrates were purchased from Midland Certified Reagent Co. (Midland, Tex.) and were PAGE purified prior to use. All gel-based comparisons were performed with the following double stranded substrate: (35DHU) 5′-TET-tgtcaatagcaagnggagaagtcaatcgtgagtct-3′ (SEQ ID NO:1) where TET represents the fluorescent label 6-tetrachlorofluorescein and n=5,6-dihydrouracil (DHU). […]
as §3
(§6) Fluorescence readings were made on a Synergy HT Multi-Detection Microplate Reader (BIO-TEK) using a tungsten-halogen lamp and 360/40 bandpass excitation filter in conjunction with a 460/40 emission filter. […]

N5R substrate = test: DAPI molecular accessibility assay, active fraction determination, N5R substrate; assay type: biochemical; details: N5R sequence; for calculated α value: NaBH4 and NaCNBH3
Procedure: as §1
EcoNth, EcoFpg, EcoNei, and NEIL1 were incubated for 30 minutes at 37° C. with 100 nM DHU:G-containing substrates at final concentrations of 50, 100, 200, 400, 800, 1200, or 1600 nM, in the presence of either 50 or 100 mM sodium borohydride (NaBH4) or sodium cyanoborohydride (NaCNBH3), as described in the Figures. […]
as §3
as §4, with “Corning Half Area, NBS treated (Nonbinding Surface), Black, 96-well Microplates plates (Corning #3686) were used for all DAPI-based experiments.” left out, “effect. […]” for “effect.”

5R substrate = test: DAPI molecular accessibility assay, active fraction determination, 5R substrate; assay type: biochemical; details: 5R sequence, NaBH4 and NaCNBH3
Procedure: as §5, §3, §6

[2] = NaCNBH3 (50 mM EcoNth, 100 mM EcoFpg), 30 minutes 37° C.
[3] = EcoNth range stated jointly for 4L, 5L, 5R

For “NEIL1: human ortholog of endonuclease VIII, recent purification with good activity”, the “activity (100*α)” value (4L substrate) was “over 50%”.

With “5′-gccccgccgccccgccncaattccgccgccgcc-3′ [N5R]” the “FI (Fluorescence Intensity)” value [1] was 60.7 ± 3.0 x10^−3.

For 5′-gccccgccaattnccgccgccgcc-3′ [4L], the “FI (Fluorescence Intensity)” value [1] was 55.2 ± 2.8 x10^−3.

For “5′-gccccgccgccccgccnaattccgccgccgcc-3′ [5R]”, the “FI (Fluorescence Intensity)” value [1] was 69.5 ± 2.9 x10^−3.

With 5′-gccccgccaattcnccgccgccgcc-3′ [5L] the “FI (Fluorescence Intensity)” value [1] was 65.9 ± 2.6 x10^−3.

B1: EcoNth: Escherichia coli endonuclease III, purified recombinant enzyme preparation (protein, UniProt P0AB83 1-211, looked up)
Endonuclease III: MNKAKRLEILTRLRENNPHPTTELNFSSPFELLIAVLLSAQATDVSVNKATAKLYPVANTPAAMLELGVEGVKTYIKTIGLYNSKAENIIKTCRILLEQHNGEVPEDRAALEALPGVGRKTANVVLNTAFGWPTIAVDTHIFRVCNRTQFAPGKNVEQVEEKLLKVVPAEFKVDCHHWLILHGRYTCIARKPRCGSCIIEDLCEYKEKVDI
With B1 the “α value (active enzyme fraction)” value (35DHU substrate; 50 mM NaBH4, 30 minutes 37° C.) was 0.199, the “α value (active enzyme fraction)” value (35DHU substrate; [2]) was 0.206 and the active fraction (35DHU substrate) was “approximately 20%”. For the same molecule, the active fraction (4L substrate) was 19-24%, the active fraction (5L substrate) was 19-24% and the active fraction (N5R substrate; NaBH4 (first value, figure order)) was “approximately 12%”. The “calculated α value” (N5R substrate) was “lower” and the active fraction (N5R substrate; NaCNBH3 (second value, figure order)) was ~16%.

B2: EcoNei: Escherichia coli endonuclease VIII, purification known to have little activity (protein, UniProt P50465 2-263, looked up)
Endonuclease 8: PEGPEIRRAADNLEAAIKGKPLTDVWFAFPQLKPYQSQLIGQHVTHVETRGKALLTHFSNDLTLYSHNQLYGVWRVVDTGEEPQTTRVLRVKLQTADKTILLYSASDIEMLTPEQLTTHPFLQRVGPDVLDPNLTPEVVKERLLSPRFRNRQFAGLLLDQAFLAGLGNYLRVEILWQVGLTGNHKAKDLNAAQLDALAHALLEIPRFSYATRGQVDENKHHGALFRFKVFHRDGEPCERCGSIIEKTTLSSRPFYWCPGCQH
With B2 the “activity (100*α)” value (4L substrate) was “less than 5%”.

B3: EcoFpg: Escherichia coli formamidopyrimidine-DNA glycosylase, purified recombinant enzyme preparation (protein, UniProt P05523 2-269, looked up)
Formamidopyrimidine-DNA …: PELPEVETSRRGIEPHLVGATILHAVVRNGRLRWPVSEEIYRLSDQPVLSVQRRAKYLLLELPEGWIIIHLGMSGSLRILPEELPPEKHDHVDLVMSNGKVLRYTDPRRFGAWLWTKELEGHNVLTHLGPEPLSDDFNGEYLHQKCAKKKTAIKPWLMDNKLVVGVGNIYASESLFAAGIHPDRLASSLSLAECELLARVIKAVLLRSIEQGGTTLKDFLQSDGKPGYFAQELQVYGRKGEPCRVCGTPIVATKHAQRATFYCRQCQK
With B3 the “α value (active enzyme fraction)” value (35DHU substrate; 50 mM NaBH4, 30 minutes 37° C.) was 0.121, the “α value (active enzyme fraction)” value (35DHU substrate; [2]) was 0.147 and the active fraction (35DHU substrate) was “approximately 13%”. For the same molecule, the “calculated α value” (4L substrate; 50 mM NaBH4) was 0.154, the “calculated α value” (4L substrate; 100 mM NaCNBH3) was 0.136 and the active fraction (4L substrate) was “approximately 14%”. For the same molecule, the “calculated α value” (5L substrate; [3]) was “significantly lower”, the active fraction (5R substrate) was ~11% and the “calculated α value” (5R substrate; [3]) was “slightly lower”. For the same molecule, the “calculated α value” (N5R substrate) was “significantly lower”.
